One test concerns the target FCR3-DBL3X (Plasmodium falciparum FCR3, UniProt Q6UDW7, strain). As to the kind of experiment: ELISA. In general terms: In an ELISA, binding on a coated surface is turned into a signal by an enzyme label.
The next test has as its target 3D7-DBL2X (Plasmodium falciparum 3D7, UniProt Q8I639, strain). Nature of the test: ELISA.
Test [1] addresses native VAR2CSA on FCR3-CSA infected erythrocytes (Plasmodium falciparum FCR3, UniProt Q6UDW7, strain). Nature of the test: flow cytometry on cells. For orientation: In flow cytometry, cells or beads pass a laser one at a time.
Test [2] deals with full-length VAR2CSA recombinant protein (3D7-DBL1X-6ε) (Plasmodium falciparum 3D7, UniProt Q8I639, strain). As to the kind of experiment: SPR.
For a further test, the target named is FCR3-DBL6ε (Plasmodium falciparum FCR3, UniProt Q6UDW7, strain). Nature of the test: ELISA.

What is called Kd is the constant that tells how readily two partners part at equilibrium. For orientation: koff means the first-order rate constant of dissociation. For orientation: kon means the second-order rate constant of association.

B1: VHH871 (VHH)
VHH: QVQLQESGGGLVQAGGSLRLSCAASGSIFSIHAMGWYRQAPGKQRELVAAITSGGSTNYGDSVKGRFTISEDNAKNTVYLQMNGLKPEDTAVYYCAADNDGLGYVYWGQGTQVTVSS
Regarding B1, in the test with FCR3-DBL3X, the binding result is on record as “no binding (tested: 0.3 µg/ml)”. Further, the binding result with 3D7-DBL2X is “no binding (tested: 0.3 µg/ml)”. Also, in test [1], the binding result was “binds”. Moreover, in test [2], the Kd was determined as 200 nM, the koff was 3.9e-05 s⁻¹ and the on-rate constant (kon) was 216 M⁻¹ s⁻¹.

B2: VHH863 (VHH)
VHH: QVQLQESGGGLVQTGGSLRLSCAASGRTFMDYVMGWFRQAPGKEREFVASISWTDSTRYTDSVKGRFTASRDDAEATVYLQMNNLQFEDTAVYYCARGAGRGHSVSAGDYVYWGQGTQVTVSS
Consider B2, for which the binding result with FCR3-DBL6ε is “no binding (tested: 0.3 µg/ml)”. Moreover, in test [1], the binding result is “no binding (tested: 100 µg/ml)”. In test [2], the dissociation constant Kd was determined as 46 nM, the koff came to 0.0014 s⁻¹ and the kon is 31000 M⁻¹ s⁻¹.

B3: VHH864 (VHH)
VHH: QVQLQESGGGLVQTGGSLRLSCAASGRTFMDYVMGWFRQAPGKEREFVASISWTDSTRYTDSVKGRFTASRDDAKATVYLQMNNLQFEDTAVYYCARGAGRGHSVSAGDYVYWGQGTQVTVSS
As to B3, the binding result in the test with FCR3-DBL6ε is “no binding (tested: 0.3 µg/ml)”. In addition, the binding result in test [1] is reported as “no binding (tested: 100 µg/ml)”. Also, in test [2], the Kd turned out to be 18 nM, the koff worked out at 0.00063 s⁻¹ and the kon is 34000 M⁻¹ s⁻¹.

B4: VHH895 (VHH)
VHH: QVQLQESGGGLVQAGGSLRVSCAASGRALSDYAMGWFRQTPGKEREFVAAISWNGGNTYYADSVKGRFTISRDNAENTVYLQMNSLKPEDTAVYYCAANDLAVPGLLMPRVETYDYWGQGTQVTVSS
As for B4, the binding result in test [1] was “binds”. In addition, in test [2], the Kd is 800 nM, the koff was determined as 87.2 s⁻¹ and the kon was 1.1e+08 M⁻¹ s⁻¹.

B5: VHH897 (VHH)
VHH: QVQLQESGGGLVQAGGSLRISCAASGRTFSDYAMGWFRQAPGKEREFVAAISWNGDNTYYADSVKGRFTISRDNAKNTVYLQMNSLKPEDTAVYYCAANDLAVPGLLMPRVETYDYWGQGTQVTVSS
In the case of B5, in test [1], the binding result is listed as “binds”. Also, in test [2], the Kd is 43 nM, the koff was determined as 0.0013 s⁻¹ and the on-rate constant (kon) worked out at 31000 M⁻¹ s⁻¹.

B6: VHH860 (VHH)
VHH: QVQLQESGGGLVQAGGSLRLSCAASGRAFSDYAMGWFRQAPGKERDFVAAISWNGGNTYYSDSVKGRFTISRDNAENTVYLQMNSLKPEDTAVYYCAANDLAVPELLMPRVETYDYWGQGTQVTVSS
As for B6, the binding result in the test with FCR3-DBL3X is on record as “no binding (tested: 0.3 µg/ml)”. Further, in the test with 3D7-DBL2X, the binding result is on record as “no binding (tested: 0.3 µg/ml)”. Moreover, in test [1], the binding result is “binds”. In addition, in test [2], the Kd stood at 28 nM, the koff came out at 0.0013 s⁻¹ and the on-rate (kon) was found to be 46000 M⁻¹ s⁻¹.

B7: VHH884 (VHH)
VHH: QVQLQESGGGLVQAGGSLRLSCAASGRTFSNYAMGWFRQAPGKEREFVAAISWNGGSTYYADSAKGRFTISRDNAENTVYLQMNSLKPEDTAVYRCAANDLMVPELLMPRVETYDYWGQGTQVTVSS
Regarding B7, the binding result with FCR3-DBL3X was “no binding (tested: 0.3 µg/ml)”. In addition, the binding result with 3D7-DBL2X is reported as “no binding (tested: 0.3 µg/ml)”. Moreover, the binding result in test [1] is given as “binds”. Moreover, in test [2], the Kd was 400 nM, the koff turned out to be 0.0036 s⁻¹ and the association rate constant (kon) stood at 9860 M⁻¹ s⁻¹.

B8: VHH859 (VHH)
VHH: QVQLQESGGGLVQAGGSLRLSCAASGRTFSSYAMGWFRQAPGKEREFVAAISWNGSSTYYADSVKGRFTISRDNAKNTVYLQMNSLKPEDTAVYYCAANDLLVPELLMSRVEVYDYWGQGTQVTVSS
As to B8, the binding result in the test with FCR3-DBL3X is “no binding (tested: 0.3 µg/ml)”. Besides, the binding result with 3D7-DBL2X is reported as “no binding (tested: 0.3 µg/ml)”. Besides, the binding result in test [1] was “binds”. For the same molecule, in test [2], the Kd came to 300 nM, the koff was determined as 0.0032 s⁻¹ and the kon was 12000 M⁻¹ s⁻¹.

B9: VHH880 (VHH)
VHH: QVQLQESGGGLVQAGGSLRLSCAASGRTFSDYAMGWFRQAPGKDREFVAAISWSGDRTYYADSVKGRFTISRDNAENTVYLQMNSLKPEDTAVYHCAANDLMVPELLMPRVESYDYWGQGTQVTVSS
In the case of B9, in the test with FCR3-DBL3X, the binding result is on record as “no binding (tested: 0.3 µg/ml)”. The binding result with 3D7-DBL2X is listed as “no binding (tested: 0.3 µg/ml)”. Also, the binding result in test [1] was “binds”. Also, in test [2], the Kd came out at 100 nM, the off-rate constant (koff) came out at 0.0018 s⁻¹ and the kon was determined as 15000 M⁻¹ s⁻¹.

B10: VHH883 (VHH)
VHH: QVQLQESGGGLVQAGGSLRLSCAASGRTFSSYAMGWFRQAPGKEREFVAAISWSGDTTYYADSVKGRFTISRDNAKNTVSLQMNSLKPEDTAVYYCAANDLMVPALLMPRLESYDYWGQGTQVTVSS
B10: the binding result in the test with FCR3-DBL3X was “no binding (tested: 0.3 µg/ml)”. Also, the binding result in the test with 3D7-DBL2X is “no binding (tested: 0.3 µg/ml)”. The binding result in test [1] is “binds”. For the same molecule, in test [2], the Kd is 10 nM, the koff stood at 0.0017 s⁻¹ and the kon came out at 170000 M⁻¹ s⁻¹.

B11: VHH879 (VHH)
VHH: QVQLQESGGGLVQAGGSLRLSCAASGRTFSDYAMGWFRQAPGKDREFVAAISWSGDRTYYADSVKGRFTISRDNAKNTVYLQMNSLKPEDTAVYHCAANDLMVPELLMPRVESYDYWGQGTQVTVSS
As for B11, the binding result in the test with FCR3-DBL3X was “no binding (tested: 0.3 µg/ml)”. For the same molecule, the binding result with 3D7-DBL2X is “no binding (tested: 0.3 µg/ml)”. Also, the binding result in test [1] is on record as “binds”. In addition, in test [2], the equilibrium dissociation constant (Kd) worked out at 19 nM, the koff was found to be 0.0015 s⁻¹ and the kon stood at 79000 M⁻¹ s⁻¹.

B12: VHH893 (VHH)
VHH: QVQLQESGGGLVQAGGSLRLSCAASGFTFDDYAIGWFRQAPGKEREGVSCISSGDGGTYYADSVKGRFTISSDNAENTVALQMNSLKPEDTAVYYCAAVYGSCWDGLLYRTDSYEYDGWGQGTQVTVSS
As for B12, in test [1], the binding result was “no binding (tested: 100 µg/ml)”. Besides, in test [2], the Kd stood at 27 nM, the koff amounted to 0.0017 s⁻¹ and the kon is 60000 M⁻¹ s⁻¹.

B13: VHH867 (VHH)
VHH: QVQLQESGGGLVQAGGSLRLSCAASGFTLDDYGIGWFRQAPGKEREGVSFISSSDGTTDYADSVKGRFTISSDNAKNTVYLQMNSLKPEDTAVYYCAAVEQRVPFLSVLHEAIYDYWGQGTQVTVSS
Consider B13, for which the binding result is listed as “no binding (tested: 0.3 µg/ml)” in the test with FCR3-DBL3X, “no binding (tested: 0.3 µg/ml)” with 3D7-DBL2X and “binds” in test [1]. Besides, the Kd in test [2] was determined as 300 nM. For the same molecule, in test [2], the koff came to 0.0027 s⁻¹. For the same molecule, the kon in test [2] is 8690 M⁻¹ s⁻¹.

B14: VHH891 (VHH)
VHH: QVQLQESGGGLVQTGDSLRLSCAASGRTFSSYAMGWFRQAPGKEREFVAAITWGDGSADYADSVKGRFTISRDNAENTVYLQMNSLKPEDTAVYYCAAETVGAPIYTLGYSEAYDYWGQGTQVTVSS
For B14, the binding result in the test with FCR3-DBL3X is reported as “no binding (tested: 0.3 µg/ml)”. Further, the binding result with 3D7-DBL2X is “no binding (tested: 0.3 µg/ml)”. The binding result in test [1] is recorded as “binds”. In addition, in test [2], the Kd turned out to be 700 nM, the koff amounted to 0.0014 s⁻¹ and the kon was 2050 M⁻¹ s⁻¹.

B15: VHH889 (VHH)
VHH: QVQLQESGGGLVQAGGSLRLSCAASGRSFSSYAMGWFRQAPGKEREFVATITWSGGSTYYADSVKGRFTISGDSAENTVYLQMNSLKPEDTAVYYCAADETSAPLYRAYEAQYDYWGQGTQVTVSS
Regarding B15, in the test with FCR3-DBL3X, the binding result was “no binding (tested: 0.3 µg/ml)”. The binding result in the test with 3D7-DBL2X was “no binding (tested: 0.3 µg/ml)”. Moreover, the binding result in test [1] is on record as “binds”. Also, in test [2], the Kd was found to be 700 nM, the koff worked out at 0.035 s⁻¹ and the kon came out at 54000 M⁻¹ s⁻¹.

These data come from publication PMC5376981 (Scientific Reports, 2014).
